Data: PMC6351632

Biological target: Fasciola hepatica Sigma class glutathione transferase 1 (Fasciola hepatica)
Experiment: crystal structure; FhGST-S1 with glutathione (holo/CGL and GSSG complexes), microbatch, 0.15 M KBr, 20% PEG 3350; space group P212121, two subunits forming a dimer related by a molecular dyad

stoichiometry N: 2
Substance: Fasciola hepatica Sigma class glutathione transferase 1 (enzyme)
